Data set [1] addresses AimRKat (Bacillus phage Katmira (prophage of Bacillus subtilis KATMIRA1933)) (UniProt A0A7G5CHT1). As to the kind of experiment: BLI. The conditions noted are these: BLI: PBS (0.01% Tween, 0.1% BSA for hydration, baseline and dissociation), AimR 0.015-2.5 uM, temperature not stated; EMSA: 50 mM Tris pH 8, 250 mM NaCl, room …. For orientation: Mobility shift assays separate free from complexed probe on a gel.

In data set [2] the target is AimR from Katmira phage (AimR^Kat) (Katmira phage (resident phage of Bacillus subtilis subsp. KATMIRA1933)). The data set is described as follows: SEC-MALS; AimR^Kat with 1 mM AimP^Kat peptide in the injected sample and 1 μM peptide in the running buffer; 5 mg/ml, KW-803 (Shodex); 25 mM Tris pH 8, 250 mM NaCl. A general note: In gel filtration, larger molecules generally elute earlier.

For data set [3] the target is unchanged. As to the kind of experiment: SEC-MALS; apo AimR^Kat, 50 μl at 5 mg/ml on KW-803 (Shodex); 25 mM Tris pH 8, 250 mM NaCl.
Data set [4] shares this target. As to the kind of experiment: thermal shift assay (ThermoFluor); 20 μM protein, 5× Sypro Orange, 0.5 μM peptide as printed; 20 mM Tris pH 8, 250 mM NaCl; 25 to 85 °C.
Data set [5] shares this target. As to the kind of experiment: ITC; Nano ITC Low Volume; protein 10 μM, peptide 50 μM; 25 mM Tris-HCl pH 8, 250 mM NaCl; 25 °C; biphasic thermograms fitted to a two-binding site model, one site per monomer of the AimR dimer.
Data set [6] deals with AimR^Kat-N273A (Katmira phage (resident phage of Bacillus subtilis subsp. KATMIRA1933)). The data set is described as above.
For data set [7], the target named is T1, AimRSPb-I (untagged) (Bacillus phage SPbeta, UniProt O64094 1-386).
T1 sequence: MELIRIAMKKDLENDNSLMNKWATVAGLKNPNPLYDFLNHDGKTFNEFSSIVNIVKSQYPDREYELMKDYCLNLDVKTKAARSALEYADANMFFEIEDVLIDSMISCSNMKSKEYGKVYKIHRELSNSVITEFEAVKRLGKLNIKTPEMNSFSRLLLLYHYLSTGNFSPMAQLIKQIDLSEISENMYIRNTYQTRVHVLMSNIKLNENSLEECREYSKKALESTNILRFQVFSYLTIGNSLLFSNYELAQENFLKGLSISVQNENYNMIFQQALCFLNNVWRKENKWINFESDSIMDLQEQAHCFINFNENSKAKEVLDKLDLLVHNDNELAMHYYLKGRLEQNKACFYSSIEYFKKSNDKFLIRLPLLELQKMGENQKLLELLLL
As to the kind of experiment: BLI; BLI: PBS (0.01% Tween, 0.1% BSA for hydration, baseline and dissociation), AimR 0.015-2.5 uM, temperature not stated; EMSA: 50 mM Tris pH 8, 250 mM NaCl, room temperature 10 min, 0.5 uM peptide, gel at 4 C. The conditions noted are these: protein: recombinant; tags: N-terminal His tag removed; chain copies: 2.

The target in data set [8] is T2, AimRSPb-II (C-terminal His tag) (Bacillus phage SPbeta (B. subtilis 168 …, UniProt O64094 1-386)).
T2 sequence: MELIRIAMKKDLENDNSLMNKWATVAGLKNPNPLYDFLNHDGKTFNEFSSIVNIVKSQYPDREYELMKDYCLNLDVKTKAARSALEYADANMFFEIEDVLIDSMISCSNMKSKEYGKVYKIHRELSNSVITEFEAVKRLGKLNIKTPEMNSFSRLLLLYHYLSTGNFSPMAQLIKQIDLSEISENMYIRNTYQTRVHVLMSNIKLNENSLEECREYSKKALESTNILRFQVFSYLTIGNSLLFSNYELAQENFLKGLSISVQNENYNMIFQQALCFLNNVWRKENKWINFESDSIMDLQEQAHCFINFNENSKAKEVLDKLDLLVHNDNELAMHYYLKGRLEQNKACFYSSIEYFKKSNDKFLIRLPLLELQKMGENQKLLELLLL
The description is as above. Particulars: protein: recombinant; chain copies: 2.

Data set [9] deals with T1, AimRSPb-I (untagged). The data set is described as follows: EMSA; BLI: PBS (0.01% Tween, 0.1% BSA for hydration, baseline and dissociation), AimR 0.015-2.5 uM, temperature not stated; EMSA: 50 mM Tris pH 8, 250 mM NaCl, room temperature 10 min, 0.5 uM peptide, gel at 4 C. Particulars: protein: recombinant; tags: N-terminal His tag removed; chain copies: 2.
Data set [10] has as its target aimX-box^SPβ. The data set is described as follows: Biolayer interferometry, AimR binding to aimX operator. Set-up: species or system phage SPβ. Particulars: BLI. The protocol:
(§1) The Binding affinity (KD), association (kon) and dissociation (koff) rate constants between AimRs and DNA were measured by biolayer interferometry (BLI) using the BLITz system (FortéBio). Biotinilated DNA probes (IDT) (Supplementary Table 3) were immobilised in Streptavidin biosensors (FortéBio) at 50 μg ml^−1. Biosensor hydration, baselines and dissociation analysis were carried out in phosphate buffer (PBS) supplemented with 0.01% tween and 0.1% BSA. Proteins were diluted in PBS. At least four different dilutions of AimR were used in a range between 0.015 and 2.5 μM. A blank using a chip without bounded DNA was used to subtract unspecific binding. Kinetic value calculations and data analysis were performed using BLItz Pro 1.2 software employing a 1:1 model to fit the data.
Background: BLI is a label-free optical method that tracks binding on a fibre tip over time.

The target in data set [11] is aimX-box^Phi. The description is as above. Set-up: species or system phage phi3T; key to kon / koff: NBD: not binding detected in the experimental conditions used. KD > 1 × 10^−6 M. The conditions noted are these: BLI, 1:1 model. The protocol: as §1
Data set [12] relates to AimR^SPβ. The data set is described as follows: Thermal shift assay of AimR^SPβ with and without C-terminal His-tag. The format is physicochemical, phage SPβ. As for the experimental part:
The thermal shift assay was conducted in a 7500 Fast Real time PCR System (Applied Biosystems) as previously described. Briefly, samples of 20 μl buffer (20 mM Tris pH 8 and 250 mM NaCl) containing 5× Sypro Orange (Sigma-Aldrich) and 20 μM of protein were loaded in 96-well PCR plates. To calculate the Tm in the presence of the peptide, 0.5 μM of GMPRGA or GIVRGA peptide was added to the mixture. Samples were heated from 25 to 85 °C in steps of one degree. Fluorescent intensity was plotted versus temperature and integrated with GraphPad Prism software using a Boltzmann model to calculate melting temperatures.

Data set [13] addresses aimX-box^Kat. As to the kind of experiment: Biolayer interferometry, AimR binding to aimX operator. Set-up: species or system Katmira phage. The conditions noted are these: BLI, 1:1 model. The protocol:
as §1

Data set [14] concerns the target AimR^Kat-N273A (Katmira phage (resident phage of Bacillus subtilis subsp. KATMIRA1933)). As to the kind of experiment: ITC; Nano ITC Low Volume; protein 10 μM, peptide 50 μM; 25 mM Tris-HCl pH 8, 250 mM NaCl; 25 °C; biphasic thermograms fitted to a two-binding site model, one site per monomer of the AimR dimer. The source holds these as a separate data set.
Data set [15] deals with T3, AimR from B. subtilis phage SPβ (AimR^SPβ) (Bacillus subtilis phage SPβ) (UniProt O64094).
T3 sequence: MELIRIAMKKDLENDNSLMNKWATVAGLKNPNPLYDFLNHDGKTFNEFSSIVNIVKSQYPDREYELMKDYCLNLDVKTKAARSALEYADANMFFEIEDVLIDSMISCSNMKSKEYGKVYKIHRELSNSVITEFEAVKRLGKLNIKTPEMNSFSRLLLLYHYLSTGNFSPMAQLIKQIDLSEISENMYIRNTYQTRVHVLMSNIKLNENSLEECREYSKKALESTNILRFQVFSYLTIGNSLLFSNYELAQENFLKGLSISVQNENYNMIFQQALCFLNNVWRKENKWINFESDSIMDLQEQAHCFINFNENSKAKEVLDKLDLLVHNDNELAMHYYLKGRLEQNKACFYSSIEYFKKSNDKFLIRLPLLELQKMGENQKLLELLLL

Read-outs that look alike come from different tables or passages of the source.

Data on ten molecules can be found in article PMC9232636, “Insights into the mechanism of action of the arbitrium communication system in SPbeta phages” (Nature Communications, 2022).

A word on the Kd: it is a measure of binding affinity in units of concentration. One may read the stoichiometry N as a count of units in the complex or per binding partner. As usually defined, the koff is the rate constant with which the complex falls apart. Usually kon stands for a measure of how fast the partners come together.

The molecule “GTTGATCACTTAAATATTAAGTTTTTATAACATCTAGTGATGGCC (double strand) [aimX-boxKat BLI probe (DNA_Kat_b)]” came in with an equilibrium dissociation constant (Kd) in [1] of 23.1 nM.
“AimR from Katmira phage (AimR^Kat) (receptor)”: the stoichiometry N in [2] and in [3] was 2 each time.
Regarding “GGGAAAGTTCCAGAAATTCAAAAATCAAAAAATAAGAACATGGGG (double strand) [aimX-boxPhi BLI probe (DNA_Phi3T_b)]”, the equilibrium dissociation constant (Kd) in data set [1] is > 1000 nM.
Turning to “AimP^Kat, active (mature) Katmira AimP peptide GIVRGA”, the increment of the melting temperature (Tm) in data set [4] was 20 °C. In addition, in [5], the KD1 (monomer 1, two-binding site model) was 4.1 nM and the KD2 (monomer 2, two-binding site model) was 5.7 nM. Also, in data set [6], the KD1 (monomer 1, two-binding site model) was 194 nM and the KD2 (monomer 2, two-binding site model) stood at 356 nM.
On to “GTTGATCACTTAAATATTAGGTTTTAATAACATCTAGTGATGGCC (double strand) [aimX-boxSPb BLI probe (DNA_SPb_b)]”, for which the Kd in [1] was found to be 21.4 nM.

B1: aimX-boxSPb BLI probe (DNA_SPb_b) (dsDNA)
DNA 1: GTTGATCACTTAAATATTAGGTTTTAATAACATCTAGTGATGGCC
DNA 2: GGCCATCACTAGATGTTATTAAAACCTAATATTTAAGTGATCAAC
Consider B1, for which the Kd was 19.3 nM in [7] and 116 nM in [8].

B2: aimX-boxKat BLI probe (DNA_Kat_b) (dsDNA)
DNA 1: GTTGATCACTTAAATATTAAGTTTTTATAACATCTAGTGATGGCC
DNA 2: GGCCATCACTAGATGTTATAAAAACTTAATATTTAAGTGATCAAC
As for B2, the dissociation constant Kd in [7] came to 19.6 nM; in data set [8] it was 116 nM.

B3: aimX-boxPhi EMSA probe (DNA_Phi3T) (dsDNA)
DNA 1: GTTGATGTTCCAGAAATTCAAAAATCAAAAAATAAGAACATGGCC
DNA 2: GGCCATGTTCTTATTTTTTGATTTTTGAATTTCTGGAACATCAAC
As to B3, the binding result in data set [9] is “no binding”.

B4: AimR^SPβ-I: AimR^SPβ receptor without tags (protein)
chain: MELIRIAMKKDLENDNSLMNKWATVAGLKNPNPLYDFLNHDGKTFNEFSSIVNIVKSQYPDREYELMKDYCLNLDVKTKAARSALEYADANMFFEIEDVLIDSMISCSNMKSKEYGKVYKIHRELSNSVITEFEAVKRLGKLNIKTPEMNSFSRLLLLYHYLSTGNFSPMAQLIKQIDLSEISENMYIRNTYQTRVHVLMSNIKLNENSLEECREYSKKALESTNILRFQVFSYLTIGNSLLFSNYELAQENFLKGLSISVQNENYNMIFQQALCFLNNVWRKENKWINFESDSIMDLQEQAHCFINFNENSKAKEVLDKLDLLVHNDNELAMHYYLKGRLEQNKACFYSSIEYFKKSNDKFLIRLPLLELQKMGENQKLLELLLL
With B4, the dissociation constant (Kd) in data set [10] (BLITz, streptavidin biosensor with biotinylated DNA, PBS, 1:1 model, mean of five measurements, read-out: KD) is 19.3 nM; in [10] (peer review file, stated jointly for aimX-box^SPβ and aimX-box^Kat, read-out: affinity (KD)), 19 nM; in [11] (BLITz, PBS, AimR 0.015-2.5 μM) it was > 1000 nM; in [13] (BLITz, streptavidin biosensor with biotinylated DNA, PBS, mean of five measurements), 19.6 nM. In addition, the koff in data set [10] (PBS + 0.01% tween and 0.1% BSA, 1:1 model) was 0.0726 ± 0.00229 s⁻¹; in data set [11] (PBS + 0.01% tween and 0.1% BSA) it was “NBD^d”; in [13] (PBS + 0.01% tween and 0.1% BSA), 0.078 ± 0.0025 s⁻¹. Moreover, the on-rate constant (kon) in data set [10] (PBS, 1:1 model) was 3.75e+06 ± 324000 M⁻¹ s⁻¹; in data set [11] (PBS) it was “NBD^d”; in data set [13] (PBS), 3.98e+06 ± 427000 M⁻¹ s⁻¹. For the same molecule, the Tm worked out at 53.6 °C in data set [12] (20 mM Tris pH 8, 250 mM NaCl, 20 μM protein, no peptide) and 53.6 ± 0.7 in [12] (Supplementary Fig. 5b, in °C (unit assumed)).
With GMPRGA [AimP^SPβ, the SPβ AimP peptide GMPRGA], in data set [14], the KD1 (monomer 1, two-binding site model) was found to be 1.3 µM and the KD2 (monomer 2, two-binding site model) came out at 1.6 µM. This molecule also gave a phage titre (PFU/ml) after mitomycin C induction of the SPβ ΔaimR prophage complemented with AimR^SPβ, 5 μM peptide added (times (reduction of the titre)) in data set [15] of 10.
